Blank lines part the entries; values can stand above or below the sequence they belong to.
Experiments:
[1] = target: HLA-B*07:02; assay: IEDB peptide-MHC binding, purified MHC/direct/fluorescence; filed as Kd, often an IC50 or EC50 that approximates it; ≥ and ≤ were set here for values at or beyond the usual limits of such assays
[2] = target: HLA-B*44:02; assay: as above
[3] = target: HLA-B*40:01; assay: as above
[4] = target: HLA-A*31:01; assay: as above
[5] = target: HLA-B*58:01; assay: as above
[6] = target: HLA-A*02:01; assay: as above
[7] = target: HLA-B*08:01; assay: as above
[8] = target: HLA-A*69:01; assay: as above
[9] = target: HLA-A*26:01; assay: as above
[10] = target: HLA-A*01:01; assay: as above
[11] = target: HLA-A*11:01; assay: as above
[12] = target: HLA-A*03:01; assay: as above
[13] = target: HLA-B*27:05; assay: as above
[14] = target: HLA-A*23:01; assay: IEDB peptide-MHC binding, purified MHC/competitive/radioactivity; filed as Kd, often an IC50 or EC50 that approximates it; ≥ and ≤ were set here for values at or beyond the usual limits of such assays
[15] = target: HLA-B*15:01; assay: as above
[16] = target: HLA-A*24:02; assay: as above
[17] = target: HLA-B*15:01; assay: IEDB peptide-MHC binding, purified MHC/direct/fluorescence; filed as Kd, often an IC50 or EC50 that approximates it; ≥ and ≤ were set here for values at or beyond the usual limits of such assays
[18] = target: HLA-A*24:03; assay: as above
[19] = target: HLA-B*15:01; assay: IEDB peptide-MHC binding, purified MHC/competitive/fluorescence; filed as Kd, often an IC50 or EC50 that approximates it; ≥ and ≤ were set here for values at or beyond the usual limits of such assays
[20] = target: HLA-A*02:01; assay: as above
[21] = target: HLA-B*46:01; assay: as above; details: source organism: Haemophilus influenzae R3021
[22] = target: HLA-B*08:01; assay: IEDB peptide-MHC binding, purified MHC/competitive/radioactivity; filed as Kd, often an IC50 or EC50 that approximates it; ≥ and ≤ were set here for values at or beyond the usual limits of such assays; details: source organism: Vaccinia virus WR
[23] = target: HLA-A*26:01; assay: as above; details: source organism: Dengue virus 2 Jamaica/1409/1983
[24] = target: HLA-A*01:01; assay: as above; details: source organism: Dengue virus 2 Jamaica/1409/1983
[25] = target: HLA-B*53:01; assay: as above
[26] = target: HLA-A*30:02; assay: as above; details: source organism: Dengue virus 2 Jamaica/1409/1983
[27] = target: HLA-B*35:01; assay: as above
[28] = target: HLA-A*30:01; assay: as above; details: source organism: Vaccinia virus WR
[29] = target: HLA-B*57:01; assay: IEDB peptide-MHC binding, purified MHC/direct/fluorescence; filed as Kd, often an IC50 or EC50 that approximates it; ≥ and ≤ were set here for values at or beyond the usual limits of such assays; details: source organism: Campylobacter jejuni
[30] = target: HLA-B*51:01; assay: IEDB peptide-MHC binding, purified MHC/competitive/fluorescence; filed as Kd, often an IC50 or EC50 that approximates it; ≥ and ≤ were set here for values at or beyond the usual limits of such assays; details: source organism: Listeria monocytogenes FSL J1-194
[31] = target: HLA-A*29:02; assay: IEDB peptide-MHC binding, purified MHC/competitive/radioactivity; filed as Kd, often an IC50 or EC50 that approximates it; ≥ and ≤ were set here for values at or beyond the usual limits of such assays; details: source organism: Mammarenavirus machupoense
[32] = target: HLA-A*32:01; assay: as above; details: source organism: Vaccinia virus WR
[33] = target: HLA-A*02:06; assay: as above; details: source organism: Vaccinia virus WR
[34] = target: HLA-A*02:03; assay: as above; details: source organism: Vaccinia virus WR
[35] = target: HLA-A*02:02; assay: as above; details: source organism: Vaccinia virus WR
[36] = target: HLA-B*39:01; assay: IEDB peptide-MHC binding, purified MHC/competitive/fluorescence; filed as Kd, often an IC50 or EC50 that approximates it; ≥ and ≤ were set here for values at or beyond the usual limits of such assays; details: source organism: Vibrio parahaemolyticus AQ3810
[37] = source organism: Shigella dysenteriae
[38] = source organism: Dengue virus 1 Brazil/97-11/1997
[39] = source organism: Rickettsia sibirica
[40] = source organism: Giardia lamblia ATCC 50803
[41] = source organism: Haemophilus influenzae
[42] = source organism: Vaccinia virus WR
[43] = source organism: Dengue virus 2 Jamaica/1409/1983
[44] = source organism: Vibrio vulnificus
[45] = source organism: Dengue virus 4 Philippines/H241/1956
[46] = source organism: Escherichia coli O139:H28 str. E24377A
[47] = source organism: Mammarenavirus machupoense
[48] = source organism: Cryptosporidium parvum

Sequence: AEMRETHWL
Kd [1, 37]: ≥ 20000 nM | Kd [2, 37]: 2000 nM | Kd ([3]; source organism: Escherichia coli): 6.21 nM | Kd [4, 37]: ≥ 20000 nM | Kd [5, 37]: ≥ 20000 nM | Kd [6, 37]: ≥ 20000 nM | Kd [7, 37]: ≥ 20000 nM | Kd [8, 37]: ≥ 20000 nM | Kd [9, 37]: ≥ 20000 nM | Kd [10, 37]: ≥ 20000 nM | Kd [11, 37]: ≥ 20000 nM | Kd [12, 37]: ≥ 20000 nM | Kd [13, 37]: ≥ 20000 nM

Sequence: AMVLSIVSLF
Kd [14, 38]: 15.1 nM | Kd [15, 38]: 4.66 nM | Kd [16, 38]: 580 nM

Sequence: ASDRISGIL
Kd [1, 39]: 14600 nM | Kd [2, 39]: ≥ 20000 nM | Kd [3, 39]: 1460 nM | Kd [4, 39]: ≥ 20000 nM | Kd [17, 39]: 5160 nM | Kd [5, 39]: ≥ 20000 nM | Kd [6, 39]: ≥ 20000 nM | Kd [7, 39]: ≥ 20000 nM | Kd [8, 39]: ≥ 20000 nM | Kd [9, 39]: ≥ 20000 nM | Kd [10, 39]: 6550 nM | Kd [18, 39]: ≥ 20000 nM | Kd [11, 39]: ≥ 20000 nM | Kd [12, 39]: ≥ 20000 nM | Kd [13, 39]: ≥ 20000 nM

Sequence: ELVDTTEMY
Kd ([9]; source organism: Mycobacterium tuberculosis variant bovis): 207 nM | Kd ([19]; source organism: Mycobacterium tuberculosis H37Rv): 324 nM

Sequence: EMKLRQKQL
Kd [7, 40]: 38 nM | Kd [20, 40]: ≥ 20000 nM

Kd [3, 41]: 2970 nM | Kd [17, 41]: 42.3 nM | Kd [8, 41]: 9840 nM | Kd [21]: 2370 nM
Sequence: EQFPNATAF

Sequence: FIAKHFLEL
Kd [15, 42]: 6500 nM | Kd [22]: 1.3 nM

Sequence: FLYSFFLCI
Kd [15, 42]: 1170 nM | Kd [22]: 5810 nM

Sequence: FTIMAAILAY
Kd [15, 43]: 2.18 nM | Kd [23]: 55 nM | Kd [24]: 973 nM | Kd [25, 43]: 3450 nM | Kd [26]: 2170 nM

Sequence: GSEVPGFCH
Kd [1, 44]: ≥ 20000 nM | Kd [2, 44]: ≥ 20000 nM | Kd [3, 44]: ≥ 20000 nM | Kd [4, 44]: ≥ 20000 nM | Kd [17, 44]: ≥ 20000 nM | Kd [5, 44]: ≥ 20000 nM | Kd [6, 44]: ≥ 20000 nM | Kd [7, 44]: ≥ 20000 nM | Kd [8, 44]: ≥ 20000 nM | Kd [9, 44]: ≥ 20000 nM | Kd [10, 44]: ≥ 20000 nM | Kd [18, 44]: ≥ 20000 nM | Kd [11, 44]: ≥ 20000 nM | Kd [12, 44]: ≥ 20000 nM | Kd [13, 44]: ≥ 20000 nM

Sequence: GYCLTRWML
Kd ([18]; source organism: Mammarenavirus lassaense): 39.5 nM

Sequence: GYQHKTLAI
Kd [18, 44]: 6.5 nM

Sequence: IAMTDTTPF
Kd [15, 38]: 4.25 nM | Kd [27, 38]: 1.18 nM | Kd [25, 38]: 172 nM

Sequence: IANQAAVLM
Kd [27, 45]: 75.1 nM

Sequence: ILWILDRLF
Kd ([19]; source organism: Influenza A virus (A/Memphis/1/1978(H1N1))): ≥ 20000 nM

Sequence: KAFKKFPSG
Kd [15, 42]: 2990 nM | Kd [28]: 247 nM

Kd [19, 46]: 1160 nM | Kd [20, 46]: 1.7 nM
Sequence: KMSGKTPAV

Sequence: KNNNEFAFF
Kd [15, 42]: 1330 nM

Sequence: KQEHETSWHY
Kd [15, 43]: 125 nM | Kd [26]: ≥ 69700 nM

Sequence: KSNKIRGRM
Kd [29]: 988 nM | Kd ([5]; source organism: Campylobacter jejuni): 192 nM

Sequence: LAYTIGTTHF
Kd [16, 43]: 230 nM | Kd [27, 43]: 1410 nM

Sequence: LIKVLVEHG
Kd [15, 42]: 621 nM

Sequence: LKYAPFFQV
Kd [30]: ≥ 20000 nM

Sequence: LLFVCISYY
Kd [15, 42]: ≥ 78100 nM

Sequence: LLSPVRVPNY
Kd [15, 43]: 2.99 nM | Kd [24]: 15100 nM | Kd [26]: 306 nM

Sequence: LMRRGDLPVW
Kd [15, 43]: 159 nM

Sequence: LPGADTQGSN
Kd [27, 43]: 2840 nM

Sequence: MKLVMAFIAF
Kd [27, 38]: 1830 nM

Sequence: PYENLLYKL
Kd ([18]; source organism: Mammarenavirus paranaense): 785 nM | Kd [14, 47]: 81.5 nM | Kd [16, 47]: 521 nM | Kd [31]: 2340 nM

Sequence: QLNQLSKSEF
Kd [15, 38]: 73.1 nM

Sequence: RIRNKFMFI
Kd [15, 42]: 766 nM | Kd [22]: 1.58 nM | Kd [28]: 0.0693 nM

Sequence: RLLRMNNEN
Kd [2, 48]: ≥ 20000 nM | Kd [3, 48]: ≥ 20000 nM | Kd [4, 48]: ≥ 20000 nM | Kd [17, 48]: ≥ 20000 nM | Kd [5, 48]: ≥ 20000 nM | Kd [6, 48]: ≥ 20000 nM | Kd [7, 48]: ≥ 20000 nM | Kd [8, 48]: ≥ 20000 nM | Kd [9, 48]: ≥ 20000 nM | Kd [10, 48]: ≥ 20000 nM | Kd [11, 48]: ≥ 20000 nM | Kd [12, 48]: ≥ 20000 nM | Kd [13, 48]: ≥ 20000 nM

Sequence: SLCKLNNVF
Kd [15, 42]: 16 nM | Kd [32]: 927 nM

Sequence: SVIFYFISI
Kd [33]: 0.169 nM | Kd [15, 42]: 335 nM | Kd [34]: 75 nM | Kd [35]: 155 nM

Sequence: THPERTLRL
Kd [36]: 2500 nM

Sequence: YICILINHG
Kd [15, 42]: 813 nM

Sequence: YPKTKLTDWD
Kd [27, 45]: 1310 nM
